# Test results taken from patent US20250084176A1 (F STAR BETA, published 2025).
# B1: FS22-053/HelD1.3 (bispecific antibody, human IgG1, kappa)
# heavy: QVQLQESGPGLVRPSQTLSLTCTVSGSTFSGYGVNWVRQPPGRGLEWIGMIWGDGNTDYNSALKSRVTMLVDTSKNQFSLRLSSVTAADTAVYYCARERDYRLDYWGQGSLVTVSSASTKGPSVFPLAPSSKSTSGGTAALGCLVKDYFPEPVTVSWNSGALTSGVHTFPAVLQSSGLYSLSSVVTVPSSSLGTQTYICNVNHKPSNTKVDKKVEPKSCDKTHTCPPCPAPELLGGPSVFLFPPKPKDTLMISRTPEVTCVVVDVSHEDPEVKFNWYVDGVEVHNAKTKPREEQYNSTYRVVSVLTVLHQDWLNGKEYKCKVSNKALPAPIEKTISKAKGQPREPQVYTLPPSRDELNPPYLFSNQVSLTCLVKGFYPSDIAVEWESNGQPENNYKTTPPVLDSDGSFFLYSKLTVYYNRWQDGNVFSCSVMHEALHNHYTQKSLSLSPG
# light: DIQMTQSPASLSASVGETVTITCRASGNIHNYLAWYQQKQGKSPQLLVYNAKTLADGVPSRFSGSGSGTQYSLKINSLQPEDFGSYYCQHFWSTPRTFGGGTKLEIKRTVAAPSVFIFPPSDEQLKSGTASVVCLLNNFYPREAKVQWKVDNALQSGNSQESVTEQDSKDSTYSLSSTLTLSKADYEKHKVYACEVTHQGLSSPVTKSFNRGEC
# notes: Mock mAb^2, IgG1 without LALA; also called FS22-053/HeID1.3
# B2: FS22-172-004/HelD1.3 (bispecific antibody, human IgG1, kappa)
# heavy: QVQLQESGPGLVRPSQTLSLTCTVSGSTFSGYGVNWVRQPPGRGLEWIGMIWGDGNTDYNSALKSRVTMLVDTSKNQFSLRLSSVTAADTAVYYCARERDYRLDYWGQGSLVTVSSASTKGPSVFPLAPSSKSTSGGTAALGCLVKDYFPEPVTVSWNSGALTSGVHTFPAVLQSSGLYSLSSVVTVPSSSLGTQTYICNVNHKPSNTKVDKKVEPKSCDKTHTCPPCPAPELLGGPSVFLFPPKPKDTLMISRTPEVTCVVVDVSHEDPEVKFNWYVDGVEVHNAKTKPREEQYNSTYRVVSVLTVLHQDWLNGKEYKCKVSNKALPAPIEKTISKAKGQPREPQVYTLPPSRDELNYIYPPYNQVSLTCLVKGFYPSDIAVEWESNGQPENNYKTTPPVLDSDGSFFLYSKLTVGADRWLEGNVFSCSVMHEALHNHYTQKSLSLSPG
# light: DIQMTQSPASLSASVGETVTITCRASGNIHNYLAWYQQKQGKSPQLLVYNAKTLADGVPSRFSGSGSGTQYSLKINSLQPEDFGSYYCQHFWSTPRTFGGGTKLEIKRTVAAPSVFIFPPSDEQLKSGTASVVCLLNNFYPREAKVQWKVDNALQSGNSQESVTEQDSKDSTYSLSSTLTLSKADYEKHKVYACEVTHQGLSSPVTKSFNRGEC
# notes: Mock mAb^2, IgG1 without LALA
# B3: FS22-053-017/HelD1.3 (bispecific antibody, human IgG1, kappa)
# heavy: QVQLQESGPGLVRPSQTLSLTCTVSGSTFSGYGVNWVRQPPGRGLEWIGMIWGDGNTDYNSALKSRVTMLVDTSKNQFSLRLSSVTAADTAVYYCARERDYRLDYWGQGSLVTVSSASTKGPSVFPLAPSSKSTSGGTAALGCLVKDYFPEPVTVSWNSGALTSGVHTFPAVLQSSGLYSLSSVVTVPSSSLGTQTYICNVNHKPSNTKVDKKVEPKSCDKTHTCPPCPAPELLGGPSVFLFPPKPKDTLMISRTPEVTCVVVDVSHEDPEVKFNWYVDGVEVHNAKTKPREEQYNSTYRVVSVLTVLHQDWLNGKEYKCKVSNKALPAPIEKTISKAKGQPREPQVYTLPPSRDELNPPYLFSNQVSLTCLVKGFYPSDIAVEWESNGQPENNYKTTPPVLDSDGSFFLYSKLTVYHWRWLEGNVFSCSVMHEALHNHYTQKSLSLSPG
# light: DIQMTQSPASLSASVGETVTITCRASGNIHNYLAWYQQKQGKSPQLLVYNAKTLADGVPSRFSGSGSGTQYSLKINSLQPEDFGSYYCQHFWSTPRTFGGGTKLEIKRTVAAPSVFIFPPSDEQLKSGTASVVCLLNNFYPREAKVQWKVDNALQSGNSQESVTEQDSKDSTYSLSSTLTLSKADYEKHKVYACEVTHQGLSSPVTKSFNRGEC
# notes: Mock mAb^2, IgG1 without LALA; also called FS22-053-17; FS22-053-017/HeID1.3
# B4: FS22-172/HelD1.3 (bispecific antibody, human IgG1, kappa)
# heavy: QVQLQESGPGLVRPSQTLSLTCTVSGSTFSGYGVNWVRQPPGRGLEWIGMIWGDGNTDYNSALKSRVTMLVDTSKNQFSLRLSSVTAADTAVYYCARERDYRLDYWGQGSLVTVSSASTKGPSVFPLAPSSKSTSGGTAALGCLVKDYFPEPVTVSWNSGALTSGVHTFPAVLQSSGLYSLSSVVTVPSSSLGTQTYICNVNHKPSNTKVDKKVEPKSCDKTHTCPPCPAPELLGGPSVFLFPPKPKDTLMISRTPEVTCVVVDVSHEDPEVKFNWYVDGVEVHNAKTKPREEQYNSTYRVVSVLTVLHQDWLNGKEYKCKVSNKALPAPIEKTISKAKGQPREPQVYTLPPSRDELRKYYPPYNQVSLTCLVKGFYPSDIAVEWESNGQPENNYKTTPPVLDSDGSFFLYSKLTVGADRWLEGNVFSCSVMHEALHNHYTQKSLSLSPG
# light: DIQMTQSPASLSASVGETVTITCRASGNIHNYLAWYQQKQGKSPQLLVYNAKTLADGVPSRFSGSGSGTQYSLKINSLQPEDFGSYYCQHFWSTPRTFGGGTKLEIKRTVAAPSVFIFPPSDEQLKSGTASVVCLLNNFYPREAKVQWKVDNALQSGNSQESVTEQDSKDSTYSLSSTLTLSKADYEKHKVYACEVTHQGLSSPVTKSFNRGEC
# notes: Mock mAb^2, IgG1 without LALA
# Key:
# [1] = target: T1, human CD137, full length, on cells (human, UniProt Q07011 24-255); test: cell-based or functional assay
# [2] = target: T2, hCD137-mFc-Avi (human; mouse, UniProt Q07011 24-186, one biotin on the Avi sequence of each monomer (BirA); unbiotinylated in the SPR of Example 5.6); test: SPR (Biacore), mAb2 captured by anti-human Fab, antigen in solution, 1:1 Langmuir
# T2 construct: Made in-house in HEK293-6E; also called human CD137-mFc-Avi; dimeric human CD137; not shown: mouse IgG2a Fc domain (mIgG2a Fc)
# Protocol: (§1) An anti-human Fab capture antibody was immobilised on all four flow cells of a CM5 series S chip (GE Healthcare #BR-1005-30) to an average surface density of 6000 RU following the manufacturer's recommendations (GE Healthcare, human Fab capture Kit, #28958325). IEach mAb² was captured to approximately 150 RU by injecting a 3 μg/ml solution of mAb² diluted in HBS-EP+ buffer (GE Healthcare #BR1006-69) for 60 seconds at 30 μl/min. Then different concentrations of human, cyno or mouse CD137 antigen (unbiotinylated human, cyno or mouse CD137-mFc-Avi or human CD137-Avi-His) in HBS-EP+ buffer were flowed over the chip for 3 min at 60 μl/min and then allowed to dissociate for 10 minutes. After each antigen concentration the chip was regenerated by infecting 10 mM glycine pH 2.1 at a flow rate of 30 μl/min for 30 seconds. Buffer HBS-EP+ was injected before the highest concentration of antigen and after the lowest concentration of antigen for reference subtraction, and one of the concentrations at random was repeated twice. The binding kinetics were fit with a 1:1 Langmuir model to generate equilibrium binding constants (KD) for each sample. Data analysis was performed with BiaEvaluation software version 3.2.
# [3] = target: T3, cCD137-mFc-Avi (cynomolgus; mouse, one biotin on the Avi sequence of each monomer (BirA); unbiotinylated in the SPR of Example 5.6); test: as above
# T3 construct: also called cyno CD137-mFc-Avi; dimeric cynomolgus CD137; not shown: mouse IgG2a Fc domain (mIgG2a Fc)
# T3 chain: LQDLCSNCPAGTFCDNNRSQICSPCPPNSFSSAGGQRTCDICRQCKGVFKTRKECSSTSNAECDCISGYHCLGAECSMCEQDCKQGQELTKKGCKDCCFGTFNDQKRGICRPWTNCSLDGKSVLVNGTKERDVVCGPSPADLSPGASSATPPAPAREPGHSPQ
# Protocol: as §1
# [4] = target: T1, human CD137, full length, on cells; test: cell-based or functional assay; remark: listed apart in the source
# [5] = target: T4, human GITR (human, UniProt Q9Y5U5 26-161, limits assumed); test: SPR (Biacore T200), receptor amine-coupled to CM5 chip
# T4 sequence (looked up): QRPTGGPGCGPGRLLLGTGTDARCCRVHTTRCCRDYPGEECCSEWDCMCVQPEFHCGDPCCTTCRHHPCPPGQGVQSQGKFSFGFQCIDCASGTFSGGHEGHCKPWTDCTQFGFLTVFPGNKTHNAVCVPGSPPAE
# Protocol: (§2) The specificity of the anti-human CD137 Fcabs for human CD137 compared to other related TNFSFR family members was tested. 8 of the Fcabs were tested in mock mAb² (HeID1.3) format and measured by SPR in a Biacore T200 (GE Healthcare) by testing for binding to other human TNFRSF receptors: CD40, OX40 and GITR. Amine coupling (amine coupling kit, GE Healthcare, BR-1000-50) was used to coat human CD40, GITR and OX40 to approximately 1000 RU in Biacore CM5 chips (GE Healthcare, cat no 29149603). […] The chip was regenerated by injection of 10 mM glycine pH 2.5 for 12 s at 30 μl/min. Antibodies specific to the different TNFRSF members were used as positive controls to verify Biacore chip coating. Data was double reference subtracted and analysed using BIAevaluation 3.2 software.
# [6] = target: T5, human OX40 (human, UniProt P43489 29-216, limits assumed); test: as above
# T5 sequence (looked up): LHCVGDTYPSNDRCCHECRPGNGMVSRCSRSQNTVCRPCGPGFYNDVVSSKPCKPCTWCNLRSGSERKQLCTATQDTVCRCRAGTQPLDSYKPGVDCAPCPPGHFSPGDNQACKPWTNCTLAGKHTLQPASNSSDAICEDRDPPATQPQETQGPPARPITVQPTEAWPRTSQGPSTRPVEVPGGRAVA
# Protocol: as §2
# [7] = target: human CD40 (human, UniProt P25942 21-193); test: as above
# Protocol: as §2
# [8] = target: T6, hCD137-Avi-His (human, UniProt Q07011 24-186, single biotin on the Avi sequence (BirA); unbiotinylated in the SPR of Example 5.6); test: SPR (Biacore), mAb2 captured by anti-human Fab, antigen in solution, 1:1 Langmuir
# T6 construct: also called human CD137-Avi-His; monomeric human CD137
# Protocol: as §1
# [9] = target: T7, mouse CD137, full length, on cells (mouse, UniProt P20334 24-256); test: cell-based or functional assay
# [10] = target: T7, mouse CD137, full length, on cells; test: cell-based or functional assay; remark: listed apart in the source
# [11] = target: T1, human CD137, full length, on cells; test: cell-based or functional assay; remark: listed apart in the source
# [12] = target: T2, hCD137-mFc-Avi; test: SPR (Biacore T200), mAb2 captured by anti-human Fab, hCD137-mFc in solution, 1:1 Langmuir
# Protocol: For the hCD137-mFc-Avi antigen the following method was used: an anti-human Fab molecule was immobilised on a CM5 chip to a surface density of between 9,000 and 11,000 response units (RU). The antibodies were diluted to 4 μg/ml in HBS-EP buffer and captured by the anti-Fab molecule with a flow rate of […].
# For mCD137-mFc-Avi binding kinetic determination, a different approach was used. […] The analysis of the data was done using the Biacore T200 evaluation software. Curves were subtracted against a blank flow cell and fitted using a 1:1 Langmuir binding model with mass transfer, setting RI to zero as constant and Rₘₐₓ to local.
# T1 sequence (Q07011 24-255): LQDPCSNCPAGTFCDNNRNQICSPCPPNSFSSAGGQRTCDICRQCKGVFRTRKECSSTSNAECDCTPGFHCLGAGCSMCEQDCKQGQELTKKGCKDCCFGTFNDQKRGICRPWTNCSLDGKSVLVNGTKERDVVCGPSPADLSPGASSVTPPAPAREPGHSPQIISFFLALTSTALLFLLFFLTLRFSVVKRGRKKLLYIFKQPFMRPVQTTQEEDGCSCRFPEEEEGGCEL
# T2 sequence (Q07011 24-186): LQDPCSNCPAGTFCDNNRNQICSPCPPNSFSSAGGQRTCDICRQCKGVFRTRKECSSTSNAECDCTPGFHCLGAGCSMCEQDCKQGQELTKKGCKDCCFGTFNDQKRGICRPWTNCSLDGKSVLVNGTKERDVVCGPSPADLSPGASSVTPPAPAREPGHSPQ
# T7 sequence (P20334 24-256): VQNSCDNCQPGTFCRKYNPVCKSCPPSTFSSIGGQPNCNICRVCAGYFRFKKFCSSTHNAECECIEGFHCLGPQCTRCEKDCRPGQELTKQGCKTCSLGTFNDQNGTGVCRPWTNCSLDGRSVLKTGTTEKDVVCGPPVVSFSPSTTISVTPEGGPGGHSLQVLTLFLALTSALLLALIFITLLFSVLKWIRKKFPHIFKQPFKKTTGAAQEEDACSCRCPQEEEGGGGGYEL
# Chain of human CD40 (P25942 21-193 limits assumed): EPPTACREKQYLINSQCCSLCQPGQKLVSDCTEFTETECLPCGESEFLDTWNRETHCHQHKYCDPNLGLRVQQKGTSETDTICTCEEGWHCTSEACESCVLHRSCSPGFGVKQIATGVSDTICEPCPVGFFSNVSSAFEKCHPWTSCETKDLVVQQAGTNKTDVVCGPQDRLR
# T6 sequence (Q07011 24-186): as the sequence (Q07011 24-186) above
binder,measurement,setting,value
B1,"NF-kB luciferase reporter (HEK.FRT.luc.hCD137), signal with against without Protein L",[1],≥ 10 fold
same,Kd,[2],38 nM
same,Kd,[3],34 nM
B2,"NF-kB signalling, HEK.FRT.luc.hCD137, +XL (EC50 nM)",[4],124 nM
same,binding result,[5],no binding (tested: starting at 1 µM)
same,binding result,[6],no binding (tested: starting at 1 µM)
same,binding result,[7],no binding (tested: starting at 1 µM)
same,Kd,[2],4.3 nM
same,Kd,[3],3.5 nM
same,Human monomeric CD137 KD fold difference relative to human dimeric KD,[8],> 200 fold
B3,"IL-2 release, mouse CD137 DO11.10 T cell activation assay, Protein L: +XL EC50",[9],16.7 nM
same,"IL-2 release, mouse CD137 DO11.10 T cell activation assay, Protein L: +XL Emax",[9],41000 pg/mL
same,"IL-2 release, mouse CD137 DO11.10 T cell activation assay: EC50 against that of FS22-053-014",[10],~8 fold
same,"IL-2 release, human CD137 DO11.10 T cell activation assay, Protein L: +XL EC50",[11],0.82 nM
same,Kd,[12],4.59 nM
same,koff,[12],0.000406 s⁻¹
same,kon,[12],88500 M⁻¹ s⁻¹
B4,"NF-kB luciferase reporter (HEK.FRT.luc.hCD137), signal with against without Protein L",[1],≥ 10 fold
same,Kd,[2],52 nM
same,Kd,[3],203 nM
